# Reference: the supplement of paper PMC7125110
# ± gives the standard error. For some of these results: Fewer inactive variants are shown than the library holds.
# B1: glmS ribozyme (parent)
# chain: AUAAAAGCGCCAGAACUACAGAAAUGUAGUUGACGAGGAGGAGGUUUAUCGAAUUUUCGGCGGAUGCCUCCAAA
# Columns and labels:
# Conditions in all cases: with glucosamine-6-phosphate
# glucosamine-6-phosphate [1] = variants of: B1; assay: kcat; higher = faster cleavage; RNA array
# How it was run: (§1)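 Tracking of barcoded ribozyme variants used a hybridised Cy3 probe at 37 °C, after in situ transcription by E. coli RNA polymerase on sequenced MiSeq chips. The flowed solution held 40 μM to 10 mM glucosamine-6-phosphate in HEPES/KCl/Mg(OAc)2 buffer, and imaging ran over ~14 h. kobs was taken from exponential decay fits of normalised per-tile medians, and kcat and KM from weighted Michaelis–Menten fits.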
# glucosamine-6-phosphate [2] = variants of: B1; assay: KM; higher = weaker cofactor use; RNA array
# How it was run: as §1
# glucosamine-6-phosphate [3] = variants of: B1; assay: self-cleavage kobs at 40 uM GlcN6P; higher = faster cleavage; RNA array
# How it was run: as §1
# glucosamine-6-phosphate [4] = variants of: B1; assay: self-cleavage kobs at 160 uM GlcN6P; higher = faster cleavage; RNA array
# How it was run: as §1
# glucosamine-6-phosphate [5] = variants of: B1; assay: self-cleavage kobs at 640 uM GlcN6P; higher = faster cleavage; RNA array
# How it was run: as §1
# glucosamine-6-phosphate [6] = variants of: B1; assay: self-cleavage kobs at 2500 uM GlcN6P; higher = faster cleavage; RNA array
# How it was run: as §1
# glucosamine-6-phosphate [7] = variants of: B1; assay: self-cleavage kobs at 10000 uM GlcN6P; higher = faster cleavage; RNA array
# How it was run: as §1
Variant,kcat (glucosamine-6-phosphate [1]) [s⁻¹],KM (glucosamine-6-phosphate [2]) [µM],self-cleavage kobs at 40 uM GlcN6P (glucosamine-6-phosphate [3]) [s⁻¹],self-cleavage kobs at 160 uM GlcN6P (glucosamine-6-phosphate [4]) [s⁻¹],self-cleavage kobs at 640 uM GlcN6P (glucosamine-6-phosphate [5]) [s⁻¹],self-cleavage kobs at 2500 uM GlcN6P (glucosamine-6-phosphate [6]) [s⁻¹],self-cleavage kobs at 10000 uM GlcN6P (glucosamine-6-phosphate [7]) [s⁻¹]
G29A A53G,0.00571 ± 0.0021,3380 ± 1700,0.000136 ± 3.6e-05,0.000249 ± 4.3e-05,0.000915 ± 0.00019,0.00162 ± 0.00059,0.00483 ± 0.00087
A64G C70G,5.51e-05 ± 2.1e-06,224 ± 79,< 1e-05,,4.33e-05 ± 1.6e-05,,5.41e-05 ± 8.6e-06
G38C U47A,< 1e-05,,< 1e-05,< 1e-05,,< 1e-05,< 1e-05
G41U C71G,0.000121 ± 9e-06,1780 ± 490,,,2.64e-05 ± 1.1e-05,8.28e-05 ± 1.7e-05,0.000102 ± 9.5e-06
A42U U47A,0.00012 ± 2.9e-06,1210 ± 91,,,4.11e-05 ± 1.2e-05,8.23e-05 ± 1.3e-05,0.000106 ± 1.7e-05
G62A U69A,3.46e-05 ± 8.1e-06,,,,,,
U30A U55A,0.0085 ± 0.0022,1850 ± 740,0.000212 ± 3.2e-05,0.000501 ± 0.00012,,0.00803 ± 0.0017,0.00686 ± 0.00088
U45A U47A,0.0227 ± 0.0082,,0.00126 ± 0.0002,0.00413 ± 0.001,0.00902 ± 0.0014,0.0263 ± 0.0064,
A14U U56A,0.00382 ± 0.0017,,0.000146 ± 3.2e-05,0.00029 ± 4.9e-05,0.000692 ± 0.00012,0.00186 ± 0.00034,0.00407 ± 0.00084
G43C C68U,0.000722 ± 5.4e-05,1370 ± 190,,7.12e-05 ± 1.6e-05,0.000235 ± 2.8e-05,0.000572 ± 0.00012,0.000615 ± 6.7e-05
U31A U69G,5.26e-05 ± 7e-06,,,4.7e-05 ± 1.3e-05,6.47e-05 ± 1.5e-05,5.62e-05 ± 1.2e-05,4.26e-05 ± 9.9e-06
U31G U65C,0.000173 ± 5.1e-05,,,,4.57e-05 ± 1.5e-05,6.33e-05 ± 1.4e-05,0.000136 ± 2e-05
A39C A52U,8.87e-05 ± 2.8e-06,2380 ± 210,< 1e-05,,1.71e-05 ± 7.8e-06,4.62e-05 ± 6.1e-06,7.13e-05 ± 7.2e-06
C50G U65G,5.8e-05 ± 2.4e-05,,,4.97e-05 ± 1.7e-05,,7.28e-05 ± 2.4e-05,
C67G C71G,1.33e-05 ± 4.1e-06,,,,,,
G9U C50G,2.48e-05 ± 1.1e-05,,,,,,
U49G C58A,3.25e-05 ± 8.4e-06,6150 ± 2700,< 1e-05,,,,

Variant,kcat (glucosamine-6-phosphate [1]) [s⁻¹],KM (glucosamine-6-phosphate [2]) [µM],self-cleavage kobs at 40 uM GlcN6P (glucosamine-6-phosphate [3]) [s⁻¹],self-cleavage kobs at 160 uM GlcN6P (glucosamine-6-phosphate [4]) [s⁻¹],self-cleavage kobs at 640 uM GlcN6P (glucosamine-6-phosphate [5]) [s⁻¹],self-cleavage kobs at 2500 uM GlcN6P (glucosamine-6-phosphate [6]) [s⁻¹],self-cleavage kobs at 10000 uM GlcN6P (glucosamine-6-phosphate [7]) [s⁻¹]
A14U U65C,8.95e-05 ± 1.3e-05,,,,3.59e-05 ± 8.9e-06,9.87e-05 ± 1.3e-05,7.83e-05 ± 7.7e-06
G41U U55C,0.000532 ± 8.1e-05,4870 ± 1100,,3.13e-05 ± 1.4e-05,6.02e-05 ± 7.7e-06,0.000181 ± 2e-05,0.000359 ± 5.4e-05
A12U G40U U45G,0.00175 ± 0.00051,,0.000216 ± 3.5e-05,,0.000743 ± 0.00024,0.00239 ± 0.0011,0.00207 ± 0.00036
U46A U55A,0.00375 ± 0.001,2140 ± 820,5.91e-05 ± 1.3e-05,0.00063 ± 0.00021,0.00107 ± 0.00026,0.00221 ± 0.00094,0.00298 ± 0.00056
A33C U54G,0.00057 ± 0.00014,,,8.91e-05 ± 2.6e-05,8.56e-05 ± 1.7e-05,0.000325 ± 3.8e-05,0.00043 ± 4.3e-05
U45A U69A,0.000153 ± 3.8e-05,,5.69e-05 ± 1.3e-05,,9.56e-05 ± 2.4e-05,0.000129 ± 3.7e-05,0.000167 ± 2.1e-05
U54A G59U,0.000197 ± 2.9e-05,,,,,,5.84e-05 ± 1e-05
A6C U65A,1.38e-05 ± 2.5e-07,3180 ± 190,,,,,
C11U,0.00338 ± 0.00074,1800 ± 450,8.01e-05 ± 1.4e-06,0.000216 ± 7.8e-06,0.000837 ± 8.1e-05,0.00508 ± 0.0016,0.00293 ± 9.8e-05
C61A C70A,< 1e-05,,< 1e-05,< 1e-05,,,
C10A U54A,< 1e-05,,< 1e-05,,,,
G41U G66A,0.00293 ± 0.00055,1820 ± 560,7.21e-05 ± 1.7e-05,0.000253 ± 7.9e-05,0.000701 ± 0.00023,0.00141 ± 0.00028,0.00299 ± 0.00054
A53U U69G,6.8e-05 ± 1.2e-05,,,6.15e-05 ± 1.2e-05,4.69e-05 ± 1.2e-05,8.29e-05 ± 9.4e-06,4.84e-05 ± 1.2e-05
A33U G37U,< 1e-05,,,< 1e-05,,,
U30A U49G C70U,0.000102 ± 2.6e-05,,,,,,8.4e-05 ± 2e-05
G32U U65G,0.00128 ± 0.00061,,< 1e-05,,,2.49e-05 ± 1.1e-05,9.34e-05 ± 1.3e-05
